Assay results: paper PMC3605307 (2013)

Tests used:
Assay in all cases: SPR
[1] = molecular target: Human TRAIL-R2-Fc D109A together with E78A (human, UniProt O14763 58-184, E78A | D109A)
[2] = molecular target: Human TRAIL-R2-Fc triple mutation V167A-W173A-V179A (human, UniProt O14763 58-184, V167A | W173A | V179A)
Human TRAIL-R2-Fc V167A = Human TRAIL-R2-Fc V167A (human, UniProt O14763 58-184, V167A)
Human TRAIL-R2-Fc F112A = Human TRAIL-R2-Fc F112A (human, UniProt O14763 58-184, F112A)
Human TRAIL-R2-Fc F112A, sequence (O14763 58-184 F112A): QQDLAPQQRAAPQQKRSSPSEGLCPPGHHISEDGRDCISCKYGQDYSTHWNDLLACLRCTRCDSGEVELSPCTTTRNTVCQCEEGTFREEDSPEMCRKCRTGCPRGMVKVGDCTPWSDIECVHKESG

Human TRAIL-R2-Fc D109A together with E78A, sequence (O14763 58-184 E78A/D109A): as the sequence (O14763 58-184 F112A) above, with E21A, D52A, A55F counted along it
Human TRAIL-R2-Fc V167A, sequence (O14763 58-184 V167A): as the sequence (O14763 58-184 F112A) above, with A55F, V110A counted along it
Human TRAIL-R2-Fc triple mutation V167A-W173A-V179A, sequence (O14763 58-184 V167A/W173A/V179A): as the sequence (O14763 58-184 F112A) above, with A55F, V110A, W116A, V122A counted along it

Row | Binder | Kd [1] [nM] | Kd [2] [nM] | Kd (Human TRAIL-R2-Fc V167A) [nM] | Kd (Human TRAIL-R2-Fc F112A) [nM]
1 | Recombinant UL141 ectodomain (soluble, released from the Fc fusion) (domain or fragment) SFPFATADIAEKMWAENYETTSPAPVLVAEGEQVTIPCTVMTHSWPMVSIRARFCRSHDGSDELILDAVKGHRLMNGLQYRLPYATWNFSQLHLGQIFSLTFNVSTDTAGMYECVLRNYSHGLIMQRFVILTQLETLSRPDEPCCTPALGRYSLGDQIWSPTPWRLRNHDCGMYRGFQRNYFYIGRADAEDCWKPACPDEEPDRCWTVIQRYRLPGDCYRSQPHPPKFLPVTPAPPADIDTGMSPWATRG | 60 |  |  | 
2 | TRAIL (TNF-related apoptosis inducing ligand) ectodomain (ligand) TNELKQMQDKYSKSGIACFLKEDDSYWDPNDEESMNSPCWQVKWQLRQLVRKMILRTSEETISTVQEKQQNISPLVRERGPQRVAAHITGTRGRSNTLSSPNSKNEKALGRKINSWESSRSGHSFLSNLHLRNGELVIHEKGFYYIYSQTYFRFQEEIKENTKNDKQMVQYIYKYTSYPDPILLMKSARNSCWSKDAEYGLYSIYQGGIFELKENDRIFVSVTNEHLIDMDHEASFFGAFLVG | 4 | 4 | 4 | 4
